Source: the supplement of paper PMC9732359
± gives the uncertainty stated by the source.

Assay: protein stability index of a GFP-peptide fusion (yeast GPS) (PSI 1-4); higher = more stable; sorted into four equal gates, so the index is relative within each strain
Procedure, shortened: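 Tiled yeast protein peptides of 17 residues were each joined downstream of GFP, on plasmids that also express Cherry. The pooled library was maintained in yeast, and mid-log cultures in leucine-free medium were sorted into four equal gates on the GFP/Cherry ratio. Plasmids from every gate were amplified by PCR and sequenced on Illumina, with barcodes linking reads to strains. The protein stability index of a peptide is its gate-number-weighted read frequency summed over the gates.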

| Sequence | protein stability index (doa10∆) | protein stability index (pdr5∆) | protein stability index (san1∆) | protein stability index (ubr1∆) |
| --- | --- | --- | --- | --- |
| NFGFGIDEHIDLGIKYD [RPL11A] | 2.59 ± 0.1 | 2.51 ± 0.16 | 2.39 ± 0.11 | 2.39 ± 0.11 |
| NFLDAPGHVNFMDETAV [SNU114] | 3.26 ± 0.16 | 3.28 ± 0.11 | 3.29 ± 0.068 | 3.08 ± 0.11 |
| NFLRLPASNILRRTTQR [YDL116W/NUP84] | 3.08 ± 0.27 |  | 3.25 ± 0.13 |  |
| NFLSVITNKHQEGLAKF [RPN2] |  |  |  | 3.17 ± 0.14 |
| NFQDLSYLSETLISRIS [YML103C/NUP188] | 2.38 ± 0.082 | 2.51 ± 0.079 | 2.04 ± 0.093 | 2.32 ± 0.074 |
| NFQISKKMDDYIHRIGR [PRP28] | 3.12 ± 0.24 |  | 3.21 ± 0.13 |  |
| NFSGLNGGITNTATNAL [YOR098C/NUP1] | 3.15 ± 0.12 | 2.91 ± 0.13 | 2.84 ± 0.084 | 3.34 ± 0.11 |
| NGFMHAGTTDNSFIKAN [RPN2] | 1.24 ± 0.055 | 1.33 ± 0.045 | 1.35 ± 0.082 | 1.26 ± 0.051 |
| NGFSFTKFNHNKEKSNS [YOR098C/NUP1] | 2.69 ± 0.082 | 2.98 ± 0.075 | 2.77 ± 0.039 | 2.57 ± 0.052 |
| NGGITNTATNALRPSDI [YOR098C/NUP1] | 2.63 ± 0.13 | 2.69 ± 0.14 | 2.11 ± 0.12 | 2.84 ± 0.12 |
| NGGNSVITLAEYEKRNH [SRP68] | 3.57 ± 0.12 | 3.28 ± 0.14 | 3.44 ± 0.1 | 3.38 ± 0.12 |
| NGIIMNGTLIGCVSYSP [YMR153W/NUP53] | 1.99 ± 0.066 | 1.95 ± 0.076 | 2.46 ± 0.21 | 2.24 ± 0.083 |
| NGIVDQVLVTTNQDGLK [RPB2] | 2.55 ± 0.092 | 2.18 ± 0.1 | 2.61 ± 0.088 | 1.81 ± 0.055 |
| NGLKDQLNEERSRYRRE [YIL149C/MLP2] | 2.77 ± 0.19 | 2.5 ± 0.22 |  | 2.86 ± 0.17 |
| NHFKDTYGFSILDIVIN [FAS1] | 3.41 ± 0.12 | 3.28 ± 0.11 | 3.33 ± 0.091 | 3.29 ± 0.088 |
| NHKSKDNNNGDDDDEDD [SKP1] | 3.13 ± 0.075 | 3.14 ± 0.069 | 3.16 ± 0.05 | 3.14 ± 0.049 |
| NIAQMIPGMSNMMNQVG [SRP54] | 2.47 ± 0.064 | 2.6 ± 0.076 | 2.67 ± 0.06 | 2.7 ± 0.078 |
| NIETGENHNGQSISNEN [SWI3] | 2.59 ± 0.26 | 3.14 ± 0.12 | 3.06 ± 0.12 | 3.13 ± 0.12 |
| NIGQQQVKKPRKQRVKK [SWI1] | 3.47 ± 0.12 | 3.35 ± 0.13 | 3.42 ± 0.084 | 3.48 ± 0.11 |
| NIIEKAMDYAISIENIV [RPN12] | 3.15 ± 0.13 | 3.29 ± 0.088 | 2.96 ± 0.094 | 3.07 ± 0.071 |
| NIKHKHTSIRETLENGE [SMC2] | 1.46 ± 0.12 | 1.74 ± 0.21 | 1.54 ± 0.2 | 1.68 ± 0.24 |
| NILKILSSLILKIFQEQ [SRB8] | 2.17 ± 0.047 | 1.99 ± 0.05 | 2.48 ± 0.1 | 2.02 ± 0.037 |
| NINNNINSTKNGKDNNN [MED2] | 3.28 ± 0.068 | 3.26 ± 0.053 | 3.24 ± 0.045 | 3.35 ± 0.041 |
| NIQKKQPAKEKGVTEKD [RRP6] | 3.12 ± 0.1 | 3.17 ± 0.045 | 3.11 ± 0.051 | 3.28 ± 0.047 |
| NISFYKLHVNWNLNATK [SIN4] | 2.43 ± 0.072 | 2.23 ± 0.077 | 2.18 ± 0.16 | 1.48 ± 0.081 |
| NITDNLFQELSKVVDDM [GRR1] | 2.69 ± 0.067 | 2.62 ± 0.083 | 2.28 ± 0.07 | 2.81 ± 0.098 |
| NIVMDSKQNGIEQSITK [SSN8] | 3.08 ± 0.16 | 2.59 ± 0.28 | 2.61 ± 0.18 | 3.15 ± 0.12 |
| NIWLNNKIINWEISNPD [NUT1] | 2.48 ± 0.076 | 2.56 ± 0.057 | 2.71 ± 0.11 | 2.56 ± 0.077 |
